Results as given in the nanobody polyreactivity screen of Harvey et al. (2022).

Assay: yeast display, Sf9 membrane polyspecificity reagent, FACS + sequencing; frameworks hold sequencing errors
Outline: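 Using colony PCR, genes from sorted yeast display clones were amplified, then sequenced on MiSeq at 2 × 250 and filtered by CDR length. The clones had been stained with 10% biotinylated, detergent-solubilized Sf9 membrane reagent for 1 hour at 4 °C and sorted by FACS into low and high (top ~1%) gates on anti-HA and streptavidin fluorescence. Polyreactivity labels come from the gate of origin.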

Sequence: QVQLVESGGGLVQAGGILRLSCAPSGRTLPPNAMGWYRHAPGKERELFAGSTWSGGSTYYADSVKGRFTISRDNAKNTVYLPMNSLKPEVTAVYYCAASRSFPGYGLYYYWGQGTQVTVSS
- polyreactivity (PSR sort gate): low polyreactivity

Sequence: QVQLVESGGGLVQAGGRLRLSCAASGRTLVSNAMGWYRQAPGKERELVAAITYSGGSTYYADSVKGRFTISRDNAKNTVYLQMNSLKPEDTAVYYCAKVGRLYRVGGYDYWGQGTQVTVSS
- polyreactivity (PSR sort gate): low polyreactivity

Sequence: QVQLVESGGGLVQAGGSLRLSCAASGRIFYFYAMGWYRQAPGKERELVAAISRRGGTTNYADSVKGRFTISRDNAKNTVYLQMNSLKPEDTAVYYCAADYQSVGGAEYDYWGQGTQVTVSS
- polyreactivity (PSR sort gate): high polyreactivity

Sequence: QVQLVESGGGLVQSGGSLRLSCAASGSTFNGYAMGWYRQAPGKERELVAGITGSGGSTYYADSVKGRFTISRDNAKNTVYLQMNSLKPEDTAVYYCKAVHWGGSYWGLDYWGQGTQVTVSS
- polyreactivity (PSR sort gate): low polyreactivity

Sequence: QVQLVESGGGLVQAGGSLRLSCAASGNIFVFYVMGWYRQAPGKERELVASISSTGNTYYADSVKGRFTISRDNAKNTVYLQMNSLKPEDTAVYYCAADSHQNVSGWLRWPRMDYWGQGTQVTVSS
- polyreactivity (PSR sort gate): low polyreactivity

Sequence: QVQLVESGGGLVQAGGSLRLSCAASGSIFFNTMGWYRQAPGKERELVAAINTSGGRTYYADSVKGRFTISRDNAKNTVYLQMNSLKPEDTAVYYCATTAYSQYYTYYYWGQGTQVTVSS
- polyreactivity (PSR sort gate): high polyreactivity

Sequence: QVQLVESGGGLVQAGGSHRLSCAASGRTFVFYAMGWYRPAPGKERELVAAISRSGGSTYYADSVKGRFTISRDNAKNTVFLQMNSLKPEDTAVSYCNARYTGSGGYWGQGTQVTVSS
- polyreactivity (PSR sort gate): high polyreactivity

Sequence: QVQLQESGGGLVQAGGSLRLSCAASGYIFPRIYMGWYRQAPGKEREFDAGISYDAITNYADSVKGRFTISLDNAKNTVYLQMNSLNPEYTAVYYCAVSYYGTPLVTYWGQGTQVTVSS
- polyreactivity (PSR sort gate): high polyreactivity

Sequence: QVQIVESGGGLVQAGGSLRLSSAASGSIFPAYAMGWYSLAPWKERELVASITGSGGTTYYADSVKGRFTISRDNAKNTGYLQMNSLKPVDTADNYCNARYYVYSATVDRYGYWGQGSQVTVSS
- polyreactivity (PSR sort gate): high polyreactivity

Sequence: QVQLVESGGGLVQAGGSLRLSCAASGSTFKTYSMGWYRQAPGKERELVAAISGNGGSTYYADSVKGRFTISRDNAKNTVYLQMNILIPEDTAVYYCAAKRRRHFSRGYEYWGQGSQVTVSS
- polyreactivity (PSR sort gate): high polyreactivity

Sequence: QVQLVESGGGLVQAGGSLRLSCAASGRTFKPYALGWYRQAPGKERELDAAISTGGSTNYADSEKGRFTISRDNAKNSVYLQMNSLKPEDTAVYYCAADYFLYSYFLGLMDYWGQGTLVTVSS
- polyreactivity (PSR sort gate): low polyreactivity

Sequence: QVQLVESGGGLVQAGGSLRLICAASGRIFRGYAMGWYRQAPGKERELVAAISGRGGRTNYADSVKGRFTISRDNAKNTVYLQMNSLKPEDTAVYYCATVPYTASRYEYWGQGTQVTVSS
- polyreactivity (PSR sort gate): high polyreactivity

Sequence: QVQLVESGGGLVQAGGSLRLSCAASGRTLARNAMGWYRQAPGKERELVAGITSGGSTDYADSVKGRFTISRDNAKNTVYLQMNSLKPEDTAVYYCNRDAGPGGDYWGQGTQVTVSS
- polyreactivity (PSR sort gate): low polyreactivity

Sequence: QVQLVESGGGLVQAGGSLRLSCAASGRTFSDNAMGWYRQAPGKERELVAASSRSGGRTYYADSVKGRFTISRDNAKNTVYLQMNSLKPEDTAVYYCAAAPSVSGTRLYEYWGQGTQVTVSS
- polyreactivity (PSR sort gate): high polyreactivity

Sequence: QVQLVESGGGLLQAGGSLRLSCSASGSTFDDYAMGWYRQAPGKERELVAAIRWSGGSTYYADSVKGRFTISRDNAKNTVYLQMKSLKPEDTAVYYCNADGRRGRYDYWGQGTQVTVSS
- polyreactivity (PSR sort gate): low polyreactivity

Sequence: QVQLVESGGGLVQAGGSLRLSCAASGSIFARYAMGWYIQAPGKEREFVAAISRSGGSTYYADSVKGRFTISRDNAKNTVYLQMNSLKPEDTAVYYCAARGGTKYDYWGQGTQVTVSS
- polyreactivity (PSR sort gate): high polyreactivity

Sequence: QVQLVESGGGLVQAGGSLRLSCAASGMIFYTYVMGWYRQAPGKEREFVAGISTSGGRTDYADSVKGRFTISRDNAKNTVYLQMNSLKPEDTAVYYCNADYWQWYSYWYDYWGQGTQVTVSS
- polyreactivity (PSR sort gate): high polyreactivity

Sequence: QVQLVESGGGLVQAGGRLRLSCAASGRTFTPNAMGWYRQAPGKERELVAAIDWRGGRTYYADSVKGRFTISRDNAKNTVYLQMNSLKPEDTAVYYCAARVDGYHYKSAGYSYGVYYWGQGTQVTVSS
- polyreactivity (PSR sort gate): low polyreactivity

Sequence: QVQLVESGGGLVQAGGSLRLSCAASGRSFSYNAMGWYRQAPGKERELVAAISYGGGRTYYADSVKGRFTISRDNAKNTVYLQMNSLKPEDTAVYYCNRYGRQYDFYYWGQGTQVSVSS
- polyreactivity (PSR sort gate): high polyreactivity

Sequence: QVQLVESGGGLVQAGGSLRLSCAASGRTFVPYAMGWYRQAPGKERELVAAINSGGSTYYADSVKGRFSISRDNAKNTVYLQMNSLKPEDTAVYYCAAEYWNSRFSYAYGYWGQGTQVTVSS
- polyreactivity (PSR sort gate): high polyreactivity

Sequence: QVQLVESGGGLVHAGGSLRLSCAASGSIFAGNAMGWYRQAPGNERELVAGISRSGGSTNYADSVKGRFTISRDNAKNTVYLQMIRLKPEDTAVYYFAASATPSGVGMDYWGQGTQVNVSS
- polyreactivity (PSR sort gate): low polyreactivity

Sequence: QVQLVESGGGLVQAGGSLRLSCAASGITFALYAMGWYRQAPGKERELVAAISYSGGRTYYADSVKGRFTISRDNAKNTVYLQMNSLKPEDTAVYYCAAGGSGSGPYGYGYWGQGTQVTVSS
- polyreactivity (PSR sort gate): high polyreactivity

Sequence: QVQLVESGGGLVQAGGSLRLSCAASGSIFITYAMVWSRQAPGKERELVAAIRDSGDRTYYADSVKGRFTISRDNAKNTVYLQMNSLKPEDTAVYYCAADYFVQVPDYYYASEYGYWGQGTQVTVSS
- polyreactivity (PSR sort gate): low polyreactivity

Sequence: QVQLVESGGGLVQAGGSLRLSCAASGFTFSKYAMGWYRQAPGKERELVAAITRRGSSTYYADSVKGRFTISRDNAKNTVYLQMNSLKPEDTAVYYCNAPRPNGYLGEDNYWGQGTQVTVSS
- polyreactivity (PSR sort gate): high polyreactivity

Sequence: QVQLVESGGGLVQAGGSLRLSCASSGRIFRGYAKGGYRQAPGKERELVADISSGASTNYADSVKGRFTISRDNAKNSVYLQMNRLKPEDTAVYYCAASIYAALIGGPGYDYWGQGTQVTVSS
- polyreactivity (PSR sort gate): low polyreactivity

Sequence: QVQLVESGGGLVQAGGSLRLSCAASGSTFDAYDMGWYRQAPGTERELVADINWSGGITYYADSVKGRFRISRDNAKNTVYLQMNSLKPEDTAVYYCNADASFYSRVNYWGQGTQVTVSS
- polyreactivity (PSR sort gate): high polyreactivity

Sequence: QVQLVESGGGLVLAGGSLRLSCAASGRIFIGNAMGWYRQAPGKERELVAAISKRGGSTYYADSVKGRFTISRDNAKNTVYLQMISLKPEDTAVYYCNKEPLYREFDYWGQGTQVTVSS
- polyreactivity (PSR sort gate): low polyreactivity

Sequence: QVQLVESGGGLVQAGGSLRLRGAASGSIFKGNAMGWYRQAPGKERELVAAITRSVARTYYADSVKVRFTISRDNAKNTVYLQMNSLKPEDTAVYDCAADWYQWGGRYYAPRYYYWGQGTQVTVSS
- polyreactivity (PSR sort gate): high polyreactivity

Sequence: QVQLVESGGGLVQAGGSLRLSCAASGSIFKYAMGWSRQAPGKERELVAAINQRGGRTYYADSVKGRFTISRDNAKNTVYLQMNSLKPEDTAVYYCNAYYLRTSSTEYDYWGQGTQVTVSS
- polyreactivity (PSR sort gate): high polyreactivity

Sequence: QVQLVESGGGLVQAGGSLRLSCAASGYTFRRYAMGWYRQAPGKERELVAAITSRGGSTYYADSVKGRFTISRDNAKNTVYLQMNSLKPEDTAVYYCAADASAYSVLTRDYWGQGTQVTVSS
- polyreactivity (PSR sort gate): high polyreactivity

Sequence: QVQLVESGGGLVQSGGSLRLSCDPSGSIFSHNAMGWYRQAPGKERELVAAITASSGSTYYADSVKGRFTISRDNAKNTVYLQMNSLKPEVNAVYFCARVSRKRHQQDGKYGYWGQGTQVTVSS
- polyreactivity (PSR sort gate): high polyreactivity

Sequence: QVQLVESGGGLVQAGGSLRLSCAASGSTSIEYGMGWYRQAPGKERELVATISIGSSTNYADSVKGRFTISRDNAKNTVYLQMNSLKPEDTAVYYCAADAYLDYYTGYYYQEYDSWGQGTQVTVSS
- polyreactivity (PSR sort gate): low polyreactivity

Sequence: QVQLVESGGGLVQAGGSHRLSCAASGRIFTYNAMGWYRQAPGKERELVAVITSGGSTYYADSVKGRFTISRDNAKNTVYLQMNSLKPEDTAVYYCNAVYFRYRYNYWGQGTQVTVSS
- polyreactivity (PSR sort gate): high polyreactivity

Sequence: QVQLVESGGGLVQAGGSLRLSCAASGIIFAYYAMGWYRQAPGKERELVAAISRSGGITYYADSVKGRFTISRDNAKNTVYLQMNSLKPEDTAAYYCARYSCRPYDYWGQGTQVTVSS
- polyreactivity (PSR sort gate): high polyreactivity

Sequence: QVQLVESGGGLVQAGGSLLLSCAASGITFSYYAMGWYRQAPGKERELVAAISRTGTSTYYADSVKGRFTISRDNAKNTVYLQMKSLKPEDTAVYYCAAVPRHPYHDKYDYWGQGTQVTVSS
- polyreactivity (PSR sort gate): high polyreactivity

Sequence: QVQLVESGGGLVQAGGSLRLSCAASGFIFYRNTMGWYRQAPGKEREFVAAIRWRGGSTYYADSVKGRFTISRDNAKNTVYLQMNSLKPEDTAVYYCAADTRPGYSGFEYWGQGTQVTVSS
- polyreactivity (PSR sort gate): high polyreactivity

Sequence: QVQLVESGGGLVQAGGSLRLSCAASGSIFRIYVMGWYRQAPGKERELVAAITNDGSTSYADSVKGRFTISRDNAKNTVYLQMNSLKPEDTAVYYCNAYRRRATYNGDYWGQGTQVTVSS
- polyreactivity (PSR sort gate): high polyreactivity

Sequence: QVQLVESGGGLVQAGGSLRLSCAASGIIFPGNAMGWNSQAPGKVRELVAAITSSDGSTYYADSVKGRFTISRDNAKNTVYVQMNSLKPEDTALYYCAADFKGLFSSELDYWGQGTQVTVSS
- polyreactivity (PSR sort gate): low polyreactivity

Sequence: QVQLVESGGGLLHAGGSLRLSCAASGSTFILYTMGWYRQAPGKERELVAAISRSSGGTYYADSVKGRFTISRDTAKNTVYLQMNSLKTEDTAVYYCAARSRGAKYDYWGQGTQVTVSS
- polyreactivity (PSR sort gate): high polyreactivity

Sequence: QVQLVESGGGLVQAGGSLRLSCAASGSIFPYYAMGWYRQATGKERELVATITSRGGSTYYADSVKGRFTISRDNAKNTVYLQMNSLIPEDTAVYNCAKEYRYYRRRYDYWGQGTQVTVSS
- polyreactivity (PSR sort gate): high polyreactivity

Sequence: QVQLVESGGGLVQAGGSLRLSCAASGSTFSWYAMGWYRPAPGKEMELVAAISSGGSTNYADSVKGRFTISRDNAKNTVYLQMNSLKPEDTAVFYCAAVWSRFLISYSTGWWFEYWGQGTQVTVSS
- polyreactivity (PSR sort gate): low polyreactivity

Sequence: QVQLVESGGVLVQAGGSLRLSCAASGFTFSHNAMGWYRLARGKERELVAAISKGGSSTYYADSVKGRFTISRDNAKNTVYLQMNSLKPEDTAVYYCARPSPHKGYDYWGQGTQVTESS
- polyreactivity (PSR sort gate): high polyreactivity

Sequence: QVQLVESGGGLVQAGGSLRLSCAASGSTFSYNARGWYRQAPGKERELVAAITSGSSTNYADSVKGRFTISRDNAKNTVYLQMNSLKPEDTAVYYCAADGYQDKYYWLETWVGYWGQGTQVTVSS
- polyreactivity (PSR sort gate): low polyreactivity
